# B1: Rho-related GTP-binding protein RhoN (Homo sapiens), P52198 (parent)
# chain: MEGQSGRCKIVVVGDAECGKTALLQVFAKDAYPGSYVPTVFENYTASFEIDKRRIELNMWDTSGSSYYDNVRPLAYPDSDAVLICFDISRPETLDSVLKKWQGETQEFCPNAKVVLVGCKLDMRTDLATLRELSKQRLIPVTHEQGTVLAKQVGAVSYVECSSRSSERSVRDVFHVATVASLGRGHRQLRRTDSRRGMQRSAQLSGRPDRGNEGEIHKDRAKSCNLM
# partner: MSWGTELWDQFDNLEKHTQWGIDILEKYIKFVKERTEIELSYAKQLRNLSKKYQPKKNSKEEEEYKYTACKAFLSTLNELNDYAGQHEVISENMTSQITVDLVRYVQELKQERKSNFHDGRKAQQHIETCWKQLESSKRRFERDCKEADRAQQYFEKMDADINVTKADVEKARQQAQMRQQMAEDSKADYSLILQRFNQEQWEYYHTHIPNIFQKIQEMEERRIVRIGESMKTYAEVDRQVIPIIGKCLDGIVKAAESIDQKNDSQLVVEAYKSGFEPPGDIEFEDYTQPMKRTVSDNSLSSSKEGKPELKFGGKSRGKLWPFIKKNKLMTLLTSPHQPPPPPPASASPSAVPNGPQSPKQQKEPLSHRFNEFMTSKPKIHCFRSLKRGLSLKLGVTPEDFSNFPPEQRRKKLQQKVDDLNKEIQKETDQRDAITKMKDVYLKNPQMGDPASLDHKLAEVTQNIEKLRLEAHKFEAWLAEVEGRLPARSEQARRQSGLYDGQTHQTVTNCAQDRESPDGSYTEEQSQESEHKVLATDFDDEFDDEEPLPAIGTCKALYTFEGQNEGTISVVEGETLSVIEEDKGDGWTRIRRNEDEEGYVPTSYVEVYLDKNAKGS
# Variants of: B1
# Settings: with fnbp1_rat Fnbp1, Q8R511
row,Variant,effect of a mutation on the interaction
1,A16V,increasing interaction
